B1: Hc-DAF-22 (Haemonchus contortus) (protein)
chain: MGKSKVYVIGVGMTKFCKPGSRDWDYPDMVKEAVNMALDDCSLKYTDIQQATVGYLFGGTCCGQRALYELGFTGIPIFNVNNACASGSSGLYLCKQIIESGNSDVVLACGFEKMATGSLDTQAGNSDGRALSVDNHIQVMSDTYGLFPAPITAQMFANAGKEHMEKYGTKREHFAKIAWKNHLHSVHNPNSQFTKEFSLDQVMNARKIYDFMGLLECSPTSDGSAAAVLCSERFLEQNPRLKPQAVEIVGLELGTDQPSVFKENSNIKMIGFDMIKKISSDLYRNTGLCPNDVQVIELHDCFAPNELITYEALGLCDVGKGGTIVDRGDNTYGGKWVINPSGGSISKGHPIGATGVAQVVELSNQLRGKCGKRQVPNCKIAMQHNIGIGGAGVVGLYRLAYPSSTCPPTTKSSPTMSAFKSDVIFEEIKQRINEEKELVKKIATSFRIIITGEDGTVKKWTIDAKSDTPYVGDDDRKVEVEITIKDSDFMNIAAGKLKADQAFMQGKMKLKGNIAKSMKLKTLLDPKMLKAKI

What was measured:
[1] = tested on: CC(=O)CC(=O)SCCNC(=O)CCNC(=O)[C@H](O)C(C)(C)COP(=O)(O)OP(=O)(O)OC[C@H]1O[C@@H](n2cnc3c(N)ncnc32)[C@H](O)[C@@H]1OP(=O)(O)O; assay: purified protein; type: biochemical, Haemonchus contortus; conditions: 60 μM CoA co-substrate, 20 mM MgCl2, 50 mM Tris-Cl pH 8.1 (pH 8.0 also stated), 37°C, varied substrate not given, taken as AcAc-CoA
purified protein = substrate: CC(=O)CC(=O)SCCNC(=O)CCNC(=O)[C@H](O)C(C)(C)COP(=O)(O)OP(=O)(O)OC[C@H]1O[C@@H](n2cnc3c(N)ncnc32)[C@H](O)[C@@H]1OP(=O)(O)O; assay: purified protein; type: biochemical, Haemonchus contortus; conditions: 60 μM CoA co-substrate, 20 mM MgCl2, 50 mM Tris-Cl pH 8.1 (pH 8.0 also stated), 37°C, varied substrate not given, taken as AcAc-CoA, text prints 33.765

Row | Molecule | Km [1] | Vmax [1] | Km (purified protein) | Vmax (purified protein)
1 | Hc-DAF-22 (Haemonchus contortus; H299A) | 79.85 µM | 1.39 µM/min | – | –
2 | Hc-DAF-22 (Haemonchus contortus; H349A) | 78.50 µM | 0.765 µM/min | – | –
3 | Hc-DAF-22 (Haemonchus contortus; C84S) | 51.25 µM | 0.693 µM/min | – | –
4 | B1 | – | – | 33.76 µM | 1.78 µM/min

— paper PMC5682392, “Site-Directed Mutagenesis Study Revealed Three Important Residues in Hc-DAF-22, a Key Enzyme Regulating Diapause of Haemonchus contortus” (Frontiers in Microbiology, 2017)
